A short description of this series: label from the status in PepcDB records.

Consider “MAQISQLSAVILAGGLARRMNGNEKGLCLLHQQPLISHILARLTPQVCTIYFNINRSFATYQQLYPQLTYYSDKIADFQGPLSGILSGFEKIDSEYLLFVPCDTPFLPKNLVTKLTNSLIMNEATIAYAHDGEQAHPTIALIHRSITPALASYLASGERRLYHFFKTQKSIAVDFSDQKNAFQNFNSLADLEQFSTISATRVDQSRLLGITGYSGTGKTTLLEKLIPILTANGIKVGLIKHSHHNVDIDKNGKDSHRLRTAGANPTIIVCQQRWALMTETPQQAVDFQQLITKFDPESVDLILVEGFKDEQFAKIQLHRQVIKKPLPELDEWTIATATDYPIARPNLLDINQIDKIADFIQQWLNN”, for which the protein production result was “failed”.
As for “MAQKVEAGGGAGGASWDDGVHDGVRKVHVGQGQDGVSSINVVYAKDSQDVEGGEHGKKTLLGFETFEVDADDYIVAVQVTYDNVFGQDSDIITSITFNTFKGKTSPPYGLETQKKFVLKDKNGGKLVGFHGRAGEALYALGAYFATTTTPVTPAKKLSAIGGDEGTAWDDGAYDGVKKVYVGQGQDGISAVKFEYNKGAENIVGGEHGKPTLLGFEEFEIDYPSEYITAVEGTYDKIFGSDGLIITMLRFKTNKQTSAPFGLEAGTAFELKEEGHKIVGFHGKASELLHQFGVHVMPLTN”, the protein production result is “failed”.
The result for “MAQTDKHYFGTLLAQTSRAWRAELDRRLSHLGLSQARWLVLLHLARHRDSPTQRELAQSVGVEGPTLARLLDGLESQGLVRRLAVAEDRRAKHIVLTPKADVLIADIEAIAASVRNDVLTGIDESEQALCQQVLLRILANLENR” reads “not failed”; that for “MARGDEGGENMIKIYTLGGYEEVGKNMTAVEYEGEVVIIDMGIRLDRVLIHEDVEFQKMSSKDLRKLGAIPDDRPIRDKKVVAIALSHGHLDHIGAVGKLAPHYPDVPIYGTPYTIRLAKSEIKGEEYFEVTNPLYETNYGEIVQVSENLAIEFVQVTHSIPHSSIVVIHTPEGAVVYACDYKFDNNHPYGEKPDYKRLKELGKEGVKVLIAESTRVAEETKTPSEAVAKMLLEDFFLYEGMEADGLIATTFASHIARLQELIEIANKMGRQAIFIGRSLAKYTGIAKQLGLIKMKGSRVLRSPNAVSKVLKEVSQARENYLLIVTGHQGEPGAILTRMANGELYDIGPRDTVVFSAGVIPNPLNIAQRYALETKLKMRGVRMIKDLHVSGHASKEDHRYLIRMLNPEYIVPAHGEFRMLTHYAELAEEEGYRIGKDVFISRNGHIVEII”, “failed”.
With “MARNKGWVGATCCFLLFTVVFLSQKIEVSEVAVNDGLRGSPGMLLFLLPGMVACFLSARGRLLYPLFGALAAMPVCLLLLHLWNTPMRSFWQELAYVMSAVFWCVLGAMGVLCLRSLYRRYLR” the entry was “not failed”; with “MARPAKLAKISDLFCCTTCPAIDDTCVAPCEGEAPQPFQLHDIPCPPGLHTNLIEPPDMTQNIYDDPIFFQAYSQMGRSLGGLDAAPEWPALQALLPPMNGLRVLDLGCGYGWFSRWASEHGARQVVGLDVSQKMLATARATTSAPNVQYQQEDLEQLRLPACSFDLAYSSLALHYIKDLPGLFAQVYAALVPGARLVFSIEHPIFMAPRNPGWQVDAQGRQSWPVDSYQQEGERVTDWLAEGVIKQHRTLGTLLNTLIDTGFNLRHVQEWGPTAQQIEDLPALAEERERPMLLLVAAQR”, “failed”.
With “MARPHFALTSVFLASSVSLSAFGFSLPARAQSEDVAQKCQQPIKSVEASFAACTAAIDTGALSGKALAGAYIKRGFLRTRQRDLVGAEADLDAAIKANPDAADAYTTRANFWNVSGKPERALADADQAIKLDPNLPLAHFVRGSAELKLGHDDRAIADYSRAIELRPKESGEVYAVRGFAYHRKGDDIRAVADYTEALKAAPEDVGTLLNRGDARRNLRDTAGAAADYSEAIKLAPGNAGGFKGRGFIRLLTQDTGGAVADFTEAIRLSPSESGLYLNRASALGLQNQSLLALADEDMAIRLEPQHPLAYVNRAETLKLLGDKVAARASVTKALQLAPGFPPAVEVLKKLGEPKRSKEPSSEAAQEAYRRCTFPVTDLGPGEEGIKQIIKVCTLLVTAQGGSDANRALVHLQRGSMYRRQGDYQHALIDFSESLRYDPESALAYTGRGNAYRGLKLLDQALADHTEAIRLDPKYATAYNNRGNVWRDKNDLAKAIADFDRAIAISPNYAMAYFNRGNSRLESGDKEGAVADFQQTVKLSPQFKEAAERLQELGVRM” the entry was “failed”; with “MARPNFRYTHYDLKELRAGTTLEISLSSVNNVRLMTGANFQRFTELLDFKYLGGVAKKSPIRIAVPETMHWHLIIDAEGHSGLAESSVKMLPAQPQATLTRKAS”, “not failed”; with “MARRYAIYDVFTERRLAGNPLAVVFEAEGLAEEAMQAIAQEFNLSETVFILRPGNAAHSARLRIFTPAHELPFAGHPTVGAAVAIAEAAYGEANSALELMQVLEESVGPVRAAVRLKPGAATFAEFDLPRKPIRLHAQLDRQEIADALALKTTQVGFENHVPSFWSAGVPFVMIPLRDVGAAASVEFDPQRWEHLAPLAEGRLAAAYLYCRGGINHTARFHARMFAPGMGLAEDPATGSAVAALSGAINFFDGLVDGHHPMLIEQGVEMGRPSFIHLHLDIAEGKIAGARIGGHAVKVAEGELAV”, “failed”.
Take “MARVAIPSVGKDLSSMVSDRFARAEYFIIYDTESGNVEVVENTIADAHGTGPKVVQSLVSKGVEYLIASNVGRNAFETLKAAGVKVYRFEGGTVQEAIDAFSEGRLEELTTFTREG”: the protein production entry is reported as “not failed”.
With “MARVARWFLAVETVAFLGAAGVHAGVLWRGHEHARAATAETVIGVVLGLALLAAAARPRWSRRAAIGAQAFALLGTAVGLFTIAIGVGPRTAPDLAFHVAIVATLVVGLLRLARPTAGLREATP” the entry was “failed”; with “MARVLVSSPSSFFGSPLIKPSSSLRHSGVGGGGTAQFLPYRSNNNKLFTTSTTVRFSLNEIPPFHGLDSSVDIGAIFTRAESLLYTIADAAVVGADSVVTTDSSAVQKSGGWFGFISDAMELVLKILKDGLSAVHVPYAYGFAIILLTIIVKAATYPLTKQQVESTLAMQNLQPKIKAIQQRYAGNQERIQLETSRLYKQAGVNPLAGCLPTLATIPVWIGLYQALSNVANEGLFTEGFFWIPSLGGPTSIAARQSGSGISWLFPFVDGHPPLGWYDTVAYLVLPVLLIASQYVSMEIMKPPQTDDPAQKNTLLVFKFLPLMIGYFALSVPSGLSIYWLTNNVLSTAQQVYLRKLGGAKPNMDENASKIISAGRAKRSIAQPDDAGERFRQLKEQEKRSKKNKAVAKDTVELVEESQSESEEGSDDEEEEAREGALASSTTSKPLPEVGQRRSKRSKRKRTV”, “failed”; with “MARVQIDLPDKFIYSTKLQVRIGDVAAGFHMGNHMLISYLNEALLLFFREAGVIGMFGTKMNLIDADLAVIYKTEAAHGDMLRVDLGIIPSGIYGFDAFYRVTNERTGEEIAIAKMAMLFFDYEQRQISPVPEAFTVALPKIYNRAIPSTE”, “failed”.
The result for “MARVTVMIPTQRRPDGLAVAARSVFGQVGVDFAELELVIVDNDQVPSAKPVADALRKGAPCPVIYVNEKRPGVAFARNAGMARASGDFIAFLDDDEEAPSGWLAALLAAQERYDADVVFGPVKARAPAHIDQHRDYLERFFSRIGPAQAGVIDYHYGCGDSLIRRSALPDPVAPFAVERNFIGGEDDLLFGHMGAAGKRFAWEPAAWVWEDPVPSRLNLGYTIQRAFAYGQGPSAHCAAAEPRDNLGVARWMLIGVGQAAVFGLVAAVKWAVRAKDRAEWLDRAARGLGKTFWWGPFKIQFYGRTA” reads “failed”; that for “MASADEKVVEEKASVISSLLDKAKGFFAEKLANIPTPEATVDDVDFKGVTRDGVDYHAKVSVKNPYSQSIPICQISYILKSATRTIASGTIPDPGSLVGSGTTVLDVPVKVAYSIAVSLMKDMCTDWDIDYQLDIGLTFDIPVVGDITIPVSTQGEIKLPSLRDFF”, “not failed”.
With “MASIQKLGNGWRYRVSYKDAGKYKTKTKGGFRTKKECELAAAELEKKLHVGMDISAGDRLFAEYMRTWFELYQNGKHSPEHDRNIERSVKLVEEHFPGVKMKELTREMYQKFINEISPKYATDTVKKRHTYIKACLQEAIQEGIIFKDPTYKVIIKGKKDTKNEELKYLNFNEVQKLVAETKKDLRPRYISRYVILFAIATGARFSEIMGITWDCVDFKNRTITINKTWDFKDTNDFSDTKNYASKRTITIDTETVDMLQTLKSEQNKKALQTGLRNKKNLVFVNTKMQLVSNNAVNKTLRTLCKAAKIKEITCHGLRHTHASMLLYKGVNIKYISRRLGHKDIVTTLQTYSHILDEMEQVESRVVDDTMKEIHGAKFVQKNF” the entry was “failed”.
